Like-named read-outs stand apart in the source and are kept apart here.
Assays:
IgE (Homo sapiens) = test: filter; settings: 2'-OMe A,G,U; 2'-deoxy C; pool; DPBS with Ca2+ and Mg2+
[1] = target: T7 RNA polymerase Y639L/H784A/K378R (Bacteriophage T7) (UniProt P00573); settings: MNA yield, 8 mM MgCl2, 2.5 mM MnCl2
[2] = target: von Willebrand factor A1 domain (Homo sapiens) (UniProt P04275); test: filter; settings: 2'-OMe A,G,U; 2'-deoxy C; pool; DPBS with Ca2+ and Mg2+
[3] = target: von Willebrand factor (vWF) (Homo sapiens) (UniProt P04275); test: filter; settings: 2'-OMe A,G,U; 2'-deoxy C; pool; DPBS with Ca2+ and Mg2+
[4] = target: T7 RNA polymerase Y639L/H784A/K378R (Bacteriophage T7) (UniProt P00573); settings: 2.1 ug/ml enzyme; 2'-OMe NTPs, 8 mM MgCl2, 2.5 mM MnCl2, 37 C
[5] = target: T7 RNA polymerase P266L/Y639L/H784A/K378R (Bacteriophage T7) (UniProt P00573); settings: 11 ug/ml enzyme (65 at 2.6, 13 at 0.66, 8.3 at 0.16 ug/ml); 8 mM MgCl2, 2.5 mM MnCl2

“GGGAGAATTCCGACCACAAGNNNNNNNNNNNNNNNNNNNNNNNNNNNNNNNNNNNNNNNNCATATGTGCGTCTACATGGATCCTCA [ARC4218 dCmD round 6 pool, IgE selection]” was tested, and the Kd (IgE (Homo sapiens)) was 8 nM.
“GGGAGAGACAAGCTTGGGTCNNNNNNNNNNNNNNNNNNNNNNNNNNNNNNNNNNNNNNNNAGAAGAGAAAGAGAAGTTAATTAAGGATCCTCAG (double strand)” gave an activity ([1]; dCmD yield 327 pmol) of 404 pmol.
“GGGAGAATTCCGACCACAAGNNNNNNNNNNNNNNNNNNNNNNNNNNNNNNNNNNNNNNNNCATATGTGCGTCTACATGGATCCTCA [ARC4218 dCmD round 6 pool, vWF selection]” showed a Kd [2] of 4 nM and a Kd [3] of 2 nM.
For “TAATACGACTCACTATAGGGGAGTACAATAACGTTCTCGNNNNNNNNNNNNNNNNNNNNNNNNNNNNNNGGATCGTTACGACTAGCATCGATG (double strand) [ARC2118 transcription template]”, the activity (normalized MNA transcript yield) [4] was 100 and the activity (normalized MNA transcript yield) [5] was 130.
For “GGGAGAATTCCGACCAGAAGCTTNNNNNNNNNNNNNNNNNNNNNNNNNNNNNNNNNNNNNNNNCATATGTGCGTCTACATGGATCCTCA (double strand)”, the activity ([1]; dCmD yield 365 pmol) was 473 pmol.

— patent publication US20100120024
